These results are taken from paper PMC9917220.

In data set [1] the target is T1, human thrombin (Homo sapiens, UniProt P00734;P00734 328-363;364-622). As to the kind of experiment: CD; 0.5 uM thrombin, 5 uM DNA; no significant spectral change; Binding Buffer: 50 mM Tris-HCl, 100 mM NaCl, 1 mM MgCl2, 1 M DTT (so in the source), pH not stated; ITC and CD at 25 C.
In data set [2] the target is T1, human thrombin. As to the kind of experiment: ITC; 25 C, binding buffer, 1 mM Mg2+; Binding Buffer: 50 mM Tris-HCl, 100 mM NaCl, 1 mM MgCl2, 1 M DTT (so in the source), pH not stated; ITC and CD at 25 C. Background: In ITC the heat of successive injections is recorded.

B1: 40mer AS2-3 (structured_DNA)
DNA: TACAGGCAGTAAGGCCGTGTCATCAGGATGGGCACTTTCC
Take B1: the binding result in the data set with human thrombin [1] is “no binding”.

B2: AS2-3 (61mer; identical to AS7-36 and AS7-83) (structured_DNA)
DNA: TACAGGCAGTAAGGCCGTGTCATCAGGATGGGCACTTTCCTAGGGCAGGTTAGCAACAGGA
Broadly, the Kd is the equilibrium constant for the complex coming apart. The molecule B2 had a Kd in the data set with human thrombin [2] of 3.36 µM.
